What all share (experiment): cell-based or functional assay
In assay [1] the target is HIV-1 Env of isolate MGRM-AG-012 (pseudovirus) (HIV-1).
Assay [2] addresses HIV-1 Env of isolate MGRM-F1-020 (pseudovirus) (HIV-1).
For assay [3], the target named is HIV-1 JR-CSF Env N411A (HIV-1 (isolate JR-CSF)) (UniProt P20871).
Assay [4] deals with HIV-1 JR-CSF Env P313A (HIV-1 (isolate JR-CSF, clade B)) (UniProt P20871).
The target in assay [5] is HIV-1 envelope glycoprotein (Env) of isolate 92WR009, subtype A (HIV-1).
Assay [6] addresses HIV-1 envelope glycoprotein (Env) of isolate 93IN905 (HIV-1).
Assay [7] addresses HIV-1 envelope glycoprotein (Env) of isolate APV_13, on pseudovirus (HIV-1).
Assay [8] has as its target HIV-1 envelope glycoprotein (Env) of isolate CAAN.A2, on pseudovirus (HIV-1).
The target of assay [9] is HIV-1 envelope glycoprotein (Env) of isolate MGRM-Chronic-B-001, on pseudovirus (HIV-1).
Assay [10] addresses HIV-1 envelope glycoprotein (Env) of isolate MGRM-Chronic-B-004, on pseudovirus (HIV-1).
The target in assay [11] is HIV-1 envelope glycoprotein (Env) of isolate PVO.4, on pseudovirus (HIV-1).
Assay [12] concerns the target HIV-1 Env of isolate 92WR009 (pseudovirus) (HIV-1).
Assay [13] deals with HIV-1 Env of isolate CAAN.A2 (HIV-1).
Assay [14] concerns the target HIV-1 Env of isolate MGRM-A-014 (subtype A) (HIV-1).
Assay [15] addresses HIV-1 Env of isolate MGRM-AE-005 (subtype AE) (HIV-1).
Assay [16] has as its target HIV-1 Env of isolate MGRM-AG-003 (subtype AG) (HIV-1).
For assay [17], the target named is HIV-1 Env of isolate MGRM-D-021 (pseudovirus) (HIV-1).
The target of assay [18] is HIV-1 Env of isolate MGRM-F1-014 (HIV-1).
In assay [19] the target is HIV-1 Env of pseudovirus isolate MGRM-C-008 (clade C) (HIV-1).
Assay [20] has as its target HIV-1 Env of pseudovirus isolate MGRM-C-024 (clade C) (HIV-1).
In assay [21] the target is HIV-1 Env of pseudovirus isolate MGRM-C-027 (clade C) (HIV-1).

As to 5141_B17 (PGT-126) (antibody), the IC50 (µg/mL), pseudovirus neutralization in assay [1] and in assay [2] was over 50 µg/mL throughout. The Fold IC50 increase relative to wild-type (pseudovirus neutralization) in assay [3] turned out to be 0.7 fold. The same substance had a Fold IC50 increase relative to wild-type in assay [4] of 0.4 fold. For the same substance, the IC50, pseudovirus neutralization in [5] was over 50 µg/mL; in [7] it was 0.012 µg/mL; in assay [8], 0.273 µg/mL; in assay [9], over 50 µg/mL; in [10], 0.01 µg/mL; in assay [11] it was 0.017 µg/mL. In addition, in assay [6], the Neutralization IC80 came out at 0.0676 µg/mL. The same substance returned a Neutralization IC90 in assay [6] of 0.14 µg/mL. In [6], the Neutralization IC95 is 0.275 µg/mL. This substance also registered a neutralization IC50 in assay [6] of 0.0194 µg/mL.

For 5136_H01 (PGT-131) (antibody), the IC50 (µg/mL), pseudovirus neutralization in assay [12] is 3.12 µg/mL; in [13], over 50 µg/mL; in assay [17], 0.106 µg/mL; in assay [18] it was over 50 µg/mL. Moreover, the IC50, pseudovirus neutralization in [14] is 15.4 µg/mL; in assay [15], 0.017 µg/mL; in assay [16] it was 2.92 µg/mL; in [19], over 50 µg/mL; in assay [20], over 50 µg/mL; in assay [21] it was 0.065 µg/mL. Besides, the Fold IC50 increase relative to wild-type (pseudovirus neutralization) in [3] was found to be 0.6 fold. This substance returned a Fold IC50 increase relative to wild-type in [4] of 0.52 fold.

For 5147_N06 (PGT-130) (antibody), the IC50 (µg/mL), pseudovirus neutralization in [12] is 1.27 µg/mL; in [13] it was over 50 µg/mL; in [17], 0.156 µg/mL; in [18], 11.8 µg/mL. Besides, the IC50, pseudovirus neutralization in assay [14] is 0.161 µg/mL; in assay [15], 0.006 µg/mL; in [16], 0.041 µg/mL; in [19] it was 7.28 µg/mL; in assay [20] it was over 50 µg/mL; in assay [21] it was 0.008 µg/mL. The substance further had a Fold IC50 increase relative to wild-type (pseudovirus neutralization) in assay [3] of 0.6 fold. For the same substance, the Fold IC50 increase relative to wild-type in assay [4] came to 0.3 fold.

For the substance 5123_A06 (PGT-125) (antibody), the IC50 (µg/mL), pseudovirus neutralization in assay [1] and in assay [2] was over 50 µg/mL throughout. This substance registered a Fold IC50 increase relative to wild-type (pseudovirus neutralization) in [3] of 0.5 fold. Further, the Fold IC50 increase relative to wild-type in assay [4] worked out at 0.3 fold. The IC50, pseudovirus neutralization in assay [5] was 0.144 µg/mL; in assay [7], 0.007 µg/mL; in assay [8] it was 5.47 µg/mL; in assay [9], over 50 µg/mL; in [10] it was 0.007 µg/mL; in [11], 0.042 µg/mL.
